{
  "source": "patent EP4741425A1",
  "about": "(Shenzhen Synthetica Pioneering Co., Ltd., dated 2026)",
  "binders": {"B1": {"name": "Nb163E3 (VHH)", "VHH": "EVQLVESGGGLVQPGGSVRLSCVASGRIFSSNAMGWFRQAPGKEREFVAAITWRSGGSAYYADSAKGRFTISRDNAKNTVYLQMNSLKPEDTAVYYCAAGGSSWLSFPPDYWGQGTQVTVSS", "notes": "Expressed in E. coli BL21(DE3) as signal peptide + nanobody + HA-His tag and purified on a nickel column by the His tag; The signal peptide is left out here as a secretion signal; also called Nb163E3-HA-his; not shown: HA-His tag linked directly to the C-terminus"}, "B2": {"name": "Nb127D01 (VHH)", "VHH": "EVQLVESGGGLVQAGESLRLSCAASGSTFDFKVMGWYRQPPGKQREGVAAIRLSGNMHYAESVKGRFAISKANAKNTVYLQMNSLRPEDTAVYYCKVNIRGQDYWGQGTQVTVSS", "notes": "Expressed in E. coli BL21(DE3) as signal peptide + nanobody + HA-His tag and purified on a nickel column by the His tag; The signal peptide is left out here as a secretion signal; also called Nb127D01-HA-his; not shown: HA-His tag linked directly to the C-terminus"}},
  "biological_target": "T1, CXCR2 on the surface of neutrophils (primary neutrophils from blood of C57BL/6 mice) (mouse, UniProt P35343 1-359)",
  "T1 construct": "whole, on cells; No CXCR2-specific control is reported",
  "T1 sequence (looked up)": "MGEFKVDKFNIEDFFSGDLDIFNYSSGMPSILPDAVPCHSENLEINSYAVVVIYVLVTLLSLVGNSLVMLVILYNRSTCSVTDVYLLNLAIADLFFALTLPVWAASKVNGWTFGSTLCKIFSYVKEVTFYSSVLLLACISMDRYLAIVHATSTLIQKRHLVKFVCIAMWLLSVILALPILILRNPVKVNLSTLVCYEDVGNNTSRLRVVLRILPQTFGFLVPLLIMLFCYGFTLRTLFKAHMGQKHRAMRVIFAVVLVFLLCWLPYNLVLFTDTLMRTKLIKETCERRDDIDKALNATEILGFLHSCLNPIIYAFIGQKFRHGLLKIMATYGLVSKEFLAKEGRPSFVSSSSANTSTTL",
  "test": "flow cytometry on primary mouse blood neutrophils, anti-His tag PE detection",
  "data": [
    {"binder": "B1", "values": [
      {"measurement": "binding result", "result": "binds"}
    ]},
    {"binder": "B2", "values": [
      {"measurement": "binding result", "result": "binds"}
    ]}
  ]
}
